Laboratory results reported in the nanobody polyreactivity screen of Harvey et al. (2022).

Assay: yeast display, Sf9 membrane polyspecificity reagent, FACS + sequencing; frameworks hold sequencing errors
Procedure, shortened: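 Nanobodies from a synthetic yeast display library (Saccharomyces cerevisiae BJ5465), induced 36–48 hours with galactose, were stained 1 hour at 4 °C with 10% biotinylated, detergent-solubilized Sf9 membrane reagent, enriched on streptavidin microbeads, then FACS-sorted. Anti-HA (expression) and streptavidin (reagent binding) fluorescence set low and high (top ~1%) gates. Polyreactivity labels come from the gate of origin. Genes were colony-PCR amplified, MiSeq 2 × 250 sequenced and filtered by CDR length.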

Row | Sequence | polyreactivity (PSR sort gate)
1 | QVQLVESGGGLVQAGGSLRLSCAASGFTFRAYTMGWYRQAPGKERELVAAITYSGGPTYYADSVKGRFTISRDNAKNTVYLQMNSLKPEDTAVYYCAKRGWALSEYYYWGQGTQVTVSS | high polyreactivity
2 | QVQLVESGGGLVQAGGSLRLSCAASGFTFRDYAMGWYRPAPGKERELVAAITRSGGRTYYADSVKGRFTISRDNAKNTVYLQMNSLKPEDTAVYYCAAQLPYYGYDYWGQGTQVTVSS | low polyreactivity
3 | QVQLVESGGGLVQAGGSLRLSCAASGFTFRFNAMGWYRQAPGKERELVAAIRQSGGSTYYADSVKGRFTISRDTAKNTVSLQMNSLKPEDTAVYYCATGRSRIRNFGYWGQGTQVTVSS | high polyreactivity
4 | QVQLVESGGGLVQAGGSLRLSCAASGFTFRFNAMGWYRQAPGKERELVAAIRYSSGSTYYADSVKGRFTISRDNAKNTVYLEMNSLKPEDTAVYYCAAEQDYNRGYVTGRYYYWGQGTQVTVSS | high polyreactivity
5 | QVQLVESGGGLVQAGGSLRLSCAASGFTFRFYAMGWYRQAPGKERELVAAISRSGGDTYYADSVKGRFTISRDNAKNTVYLQMNSLKPEDTAVYYCNKATYRVAGRDFDYWGHGTQVTVSS | high polyreactivity
6 | QVQLVESGGGLVQAGGSLRLSCAASGFTFRFYAMGWYRQAPGKERELVAAISRSGGDTYYADSVKGRFTISRDNAKNTVYLQRNRLIPEDTAVYYCNKATYRVAGRDFDYWGQGTQVTVSS | high polyreactivity
7 | QVQLVESGGGLVQAGGSLRLSCAASGFTFRFYAMGWYRQAPGKERELVAAISSSSSSTYYADSVKGRFTISRDNAKNTVYLQMNSLKPEDTAVYYCNAGGYTRGDYWGQGTQVTVSS | high polyreactivity
8 | QVQLVESGGGLVQAGGSLRLSCAASGFTFRFYAMGWYRQAPGKERELVAAISYNGGSTYYADSVKGRFTISRDNAKNTVYLQMNSLKPEDTAVYYCAAGYYWQYTSSSAQYAYDYWGQGTQVTVSS | low polyreactivity
9 | QVQLVESGGGLVQAGGSLRLSCAASGFTFRGNAMGWYRQAPGKERELVATISRGGNTNYADSVKGRFTISRDNAKNTVYLQMNSLKPEDTAVYYCAAVSYIRSKVAYNYWGQGTQVTVSS | low polyreactivity
10 | QVQLVESGGGLVQAGGSLRLSCAASGFTFRGNVMGWYRQAPGKERELVAGISSTGSTYYADSVKGRFTISRDNAKNTVYLQMYSVKPVDTAVYYCAAAAIYFRYDYWGQGTQVTVSS | high polyreactivity
11 | QVQLVESGGGLVQAGGSLRLSCAASGFTFRGYAMGWYRQAPGKERELVAAISNGGGTNYADSVKGRFTISRDNAKNTVYLQMNSLKPEDTAVYYCNAPGYRAENPGFDYWGQGTQVTVSS | high polyreactivity
12 | QVQLVESGGGLVQAGGSLRLSCAASGFTFRGYTIGWYRQAPGKERELVAAITWSGGSTYYADSVKGRFTISRDNAKNTVYLQMNSLKPEDTAVYYCASYAWYGYVYHHLYDYWGQGTQVTVSS | high polyreactivity
13 | QVQLVESGGGLVQAGGSLRLSCAASGFTFRIYTMVWYRPAPRKERELVAAISSRGGSTYYADSVKGRFTISRDNAKNTVYLQMNSLKPEDTAVYYCAASGRVYSSGYDYWGQGTQVTVSS | high polyreactivity
14 | QVQLVESGGGLVQAGGSLRLSCAASGFTFRKYVMGWYRQAPGKERELVAGISRSGSRTYYADSVKGRFTISRDNAKNTVYLQMNSLKPEDTAVYYCAADAAHSEYDYWGQGTQVTVSS | high polyreactivity
15 | QVQLVESGGGLVQAGGSLRLSCAASGFTFRPYAMGWYRQAPGKERELVAAISTSGATTYYADSVKGRFTISRDNAKITVYLQMNSLKPEDTAVYYCNKVYWHHPWEYGYWGQGTQVTVSS | high polyreactivity
16 | QVQLVESGGGLVQAGGSLRLSCAASGFTFRQYAMGWYRQAPGKERELVAAISRSGSRTYYADSVKGRFTISRDNAKNTVYLQMNSLKPEDTAVYYCAARSYYNGKISRVGYWGQGTQVTVSS | high polyreactivity
17 | QVQLVESGGGLVQAGGSLRLSCAASGFTFRRNAMGWYRQAPGKERELVAAITYNGGTTYYADSVKGRFTISRDYAKNTVYLQMNSLKPVDTAVYYCNAPYGRQGYDYWGQGTQVTVSS | low polyreactivity
18 | QVQLVESGGGLVQAGGSLRLSCAASGFTFRRNAMGWYRQAPGKERELVAVITSSARTNYADSVKGRFTISRDNAKNTVYLQMNSLKPEDTAVYYCNAYRYRQSSSDKYGYWGQGTQVTVSS | high polyreactivity
19 | QVQLVESGGGLVQAGGSLRLSCAASGFTFRRNTMGWYRQEPGKERELVAAITQRGGSTYYADSVKGRFTISRDNAKNTVYLQMNSLKPEDTAVYYCAVERHSYIYKYDYWGQGTQVTVSS | high polyreactivity
20 | QVQLVESGGGLVQAGGSLRLSCAASGFTFRRYALGWYRQAPGKERELVAGITGRGGSTYYADSVKGRFTISRDNAKNTVYLQMNSLKPEDTAVYYCNKPRAARGYMTGQLDYWGQGTQVTVSS | high polyreactivity
21 | QVQLVESGGGLVQAGGSLRLSCAASGFTFRRYAMGWYRLAPGKERELVAAISQSGGRTYYADSVKGRFTISRDNAKNTVYLQMNSLKPEDTAVYNFAKDAAGGRHYDYWGQGTQVTVSS | high polyreactivity
22 | QVQLVESGGGLVQAGGSLRLSCAASGFTFRRYAMGWYRQAPGKEREFVAAITRSSGRTYYADSVKGRFTISRDNAKNTVYLQMNSLKPEDTAVYYCNRDTSIRHYNYWGQGTQVTVSS | high polyreactivity

Row | Sequence | polyreactivity (PSR sort gate)
23 | QVQLVESGGGLVQAGGSLRLSCAASGFTFRRYAMGWYRQAPGKERELVAAISNGGSTYYADSVKGRFTISRDNAKNTVYLQMNSLKPEDTAVYYCAADIYSYFWWPYYYWGQGTQVTVSS | high polyreactivity
24 | QVQLVESGGGLVQAGGSLRLSCAASGFTFRRYAMGWYRQAPGKERELVAAITRDDSTNYADSVKGRFTISRDNAKNTVYLQMNSLKPEDTAVYYCAARLWYPYYYWGQGTQVTVSS | high polyreactivity
25 | QVQLVESGGGLVQAGGSLRLSCAASGFTFRRYAMGWYRQAPGKERELVATITIGGSTSYADSVKGRFTISRDNAKNTVYLQMNSLKPEDTAVYYCAAVANPNRYRFDYWGQGSQVTVSS | high polyreactivity
26 | QVQLVESGGGLVQAGGSLRLSCAASGFTFRRYAMGWYRQAPGKERVLVAAISRGGSSTYYADSVKGRFTISRDNAKNTVYLQMNSLKPEDTAVYYCNARTYVALGFNYWGQGTQVTVSS | high polyreactivity
27 | QVQLVESGGGLVQAGGSLRLSCAASGFTFRRYDMGWYRQAPGKERELVATINRGGSTDYADSVKGRFTISRDNAKNTVYLQMNSLKPEDNAVYYCAADSYSTCADDYWGQGTQVTVSS | high polyreactivity
28 | QVQLVESGGGLVQAGGSLRLSCAASGFTFRRYTMGWYRQAPGKERELVAAISRSGGSTFYADSVKGRFTISRDYAKNTVYLQMNSLKPEDTAVYYCNAGRTYTALNGDYWGQGTQVTVSS | high polyreactivity
29 | QVQLVESGGGLVQAGGSLRLSCAASGFTFRSYAMGWYRQAPGKERELVASISWSGTSTYYADSVKGRFTISRDNAKNTVYLQMNSLKPEDTAVYYCNKYPSFYGAGYYWGQGTQVTVSS | high polyreactivity
30 | QVQLVESGGGLVQAGGSLRLSCAASGFTFRSYAMGWYRQAPGKERELVAVISSSGGSTYYADSVKGRFTISRDNAKNTVYLQMNSLKPEDTAVYYCNRRPATRAYLYDYWGQGTQVTVSS | high polyreactivity
31 | QVQLVESGGGLVQAGGSLRLSCAASGFTFRTNAMGWYRQAPGKERELVAAISTGARTYYADSVKGRFTISRDNAKNTVYLQMNSLKPEDTAVYYCNKVLRRFLSRYDYWGQGTQVTVSS | high polyreactivity
32 | QVQLVESGGGLVQAGGSLRLSCAASGFTFRTNLMVWYRQAPGKERELVAVITRDGGSTYYADSVKGRFTISRDHAKNTVYLQINSLKPEDTAVYYCNAAAFINFILYDYWGQGTQVTVSS | high polyreactivity
33 | QVQLVESGGGLVQAGGSLRLSCAASGFTFRTYAMGWYTQAPGKERELVADISGSGGSTYYADSVKGRFTISRDNAKNTVYLQMNSLKPEDTAVYYCAADYASWSNWGYEYWGQGTQVTVSS | high polyreactivity
34 | QVQLVESGGGLVQAGGSLRLSCAASGFTFRTYGMGWYSQAPGKERELVAAISRSSATTYYADSVKGRFTISRDNAKTTVYLQINSLKPEDTAVYYCNAGDLGRRWGMDYSGQGTQVTVSS | low polyreactivity
35 | QVQLVESGGGLVQAGGSLRLSCAASGFTFRVYAMGWYRQAPGKERDLVAPISLRGDRTYYADSVKGRFTISRDYAKNTEYLQMNRLKPEDTAVYYCHAYASYQISQDDYDYWGQGTQVTVSS | high polyreactivity
36 | QVQLVESGGGLVQAGGSLRLSCAASGFTFRVYAMGWYRQAPGKERELVAAISSGGSTNYADSVKGRFTISRDNAKNTVYLQMNSLKPEDTAVYYCAARQRYYSERPQYSGFYYWGQGTQVTVSS | high polyreactivity
37 | QVQLVESGGGLVQAGGSLRLSCAASGFTFRVYAMGWYRQAPGKERELVAAITSGSSTTYADSVKGRFTISRDNAKNTVYLQLNSLKPEDTAVYYCNARRRGRVTGSYGYWGQGTQVTVSS | high polyreactivity
38 | QVQLVESGGGLVQAGGSLRLSCAASGFTFRWNAMGWYRQAPGKERELVAAITNDDSTYYADSVKGRFTISRDNAKNTVYLQMNSLKPEDTAVYYCNARYGRYLDLDTGVALAGRGYWGQGTQVSVSS | low polyreactivity
39 | QVQLVESGGGLVQAGGSLRLSCAASGFTFRWYAMGWYRQEPGKERELVAAITSSGGRTYYADSVKGRFTISRDNAKNTVYLQMNSMKPEDTAVYYCATDLRTRKYDYWGQGTQVTVSS | high polyreactivity
40 | QVQLVESGGGLVQAGGSLRLSCAASGFTFRWYTMGWYRQAPGKERELVASIRYGGGSTYYADSVKGRFTISRDNAKNTVYLQMNSLNPEDTAVYYCAAESAWTSPYDYWGQGTQVTVSS | high polyreactivity
41 | QVQLVESGGGLVQAGGSLRLSCAASGFTFRYNAMGWYRQAPGKERELVAAISSDGITSYADSVKGRFTISRDNAKNTVYLQMNSLKPEDTAVYYCAADWRWYSAWHFGYWGQGTQVTVSS | high polyreactivity
42 | QVQLVESGGGLVQAGGSLRLSCAASGFTFRYNAMGWYRQAPGKERELVAAISSRGGSTYYADSVKGRFTISRDNAKNTVYLQMNSLKPEDTAVYYCALYGGLGDRFRPRYYWGQGTQVTVSS | high polyreactivity
43 | QVQLVESGGGLVQAGGSLRLSCAASGFTFRYNAMGWYRQAPGKERELVATISWRGTSTYYADSVKGRFTISRDNAKNTVYLQMNSLKPEDTAVYYCATRSRDQYSVSYRLDYWGQGTQVTVSS | low polyreactivity
